Experiment: label from the status in PepcDB records

Sequence	protein production
ATEEFIIRIPPYHYIHVLDQNSNVSRVEVGPKTYIRQDNERVLFAPMRMVTVPPRHYCTVANPVSRDAQGLVLFDVTGQVRLRHADLEIRLAQDPFPLYPGEVLEKDITP	failed
ATHTLQLAIGDEPTEGFDPMLGWSHGSYLLLHSPLLKQNEDFSWDSLLLSQYQPSDDGKTWLLTLKPDLKFSDGSPLTAKDVAFTYNNAAASGGKVDMGNFLSAEVIDPLNVRIHLKAPQSTFVNVLGSLGIVSADKYNAKTYAQKPIGAGPYRLVSFQPGQQMIVEANPYYAGNKNDFDKLIFVFLDEDSAFAAAQSGQLGVVRIPPSMAVGSVNNMKLWVRPSVENRGIVFPTTPAGKKDAHGYPIGNDVTADVAIRRAINYAINRQLLADQIMEGHAIPAYTGVQGLPWNNPDSAIKDGDIDKAKQILEQAGWQLNSQGTREKNGLPAKITLWYTSGDTTRRDLAQALRSMLKPIGIDVDLKSGSWETVERNMHANPTLFGWGSLDPMELYHHYSSNAAGVEYYNPGYYKNPMVDKHLQQALDAPTWQQAVPFWQQVDWDGTTGAGIRGDAAWAWLLNIQHTYLANNCVDLGKGTPEIHGSWSLLNSIDSWK	not failed
AVSGLYSSSDDVIELTPSNFNREVIQSDGLWLVEFYAPWCGHCQRLTPEWKKAATALKDVVKVGAVNADKHQSLGGQYGVQGFPTIKIFGANKNKPEDYQGGRTGEAIVDAALSALR	not failed
AYQPIRYRETGKVGELTFEFYNGAMSTEQCQRLVSALRWAKARDTQVLLVRGGRGAFSNGVHLNVIQAAEVPGLEAWANIQAIDDVCLELLTARQLVVSGLTGNAGAGGLMLALAADVVLARADTVYNPHYKSMGLYGSEYWTYSLPRAVGQAMAKQLTEACLPISALQALQMGMVQEIGPRC	failed
CSGKEALDYFKEDPQMFDMYHTGYQQQMSNWPELPVNSIINWLLSNSSSLVVADFGCGDARIAKSVKNKVFSFDLVSKNPSVIACDMSNTSLESSSVDVAVFCLSLMGTNYSSYIKEAHRVLRPSGMLLIAEVKSRFDPNNGGADPKDFVKAVCDLGFTSVLKDFSNKMFILFHFKKK	failed
DDDIEQLLEFMHQLPAFANMTMSVRRELCSVMIFEVVEQAGAIILEDGQELDSWYVILNGTVEISHPDGKVENLFMGNSFGITPTLDKQYMHGIVRTKVDDCQFVCIAQQDYWRILNHVEK	not failed
DDFETSLTELEPLEKDAYIVRLVFAGSTTTEPIVSSLSTAYDIKINILEANIKNTKNGTVGFLVLHIPYISSVDFGKFEKELIERQVKMEVLRHG	not failed
DDSLGEAVTTRAEALTIPAVLRARNLLSTTVARTPLVCDGTLPPFVPVAAPPGAATMQTPFHRMLATADDLLFNGVACWALDRDESGTCIGAIHIPLDTWQIEENTVRVNGKAVDPMEVCIFVGIHGGLLTHASETFTDARNLVRAAARVAQNPAALIELRQTNNAQLSPDDVDRIINGYVAARRGRNSGVGFSSSGLEVHEHEMAKENLLIEGRNAAAVDVARAMNVPAAFIDATVGGTSLSYQNAASRMIELVTFGVEPLMSAIEARLNQPDMHADHLANPLKFDPAALLDAIPTTPTIG	not failed
DDSSDPKTSKSATSSEASSAAEAAPAELPTAEELNAILAVATDPAAPVEQKVATVQGGETAPELFETMTASKQESGANFQ	failed
DDVTLLTVPGWGNSGDTHWHGYWEKTYPLARRAEQRDWLYPTRDEWVAGLAAAVAEIPGKLVIAAHSLGCHTTVAWLLQATLLEQRKVKGALLVAPPAIPLTDERARASGELPEGAPLPTFAGFETLPERKLPVPALLVASRDDPFCEFEEARRMAELWGAEFVDGGMAGHMGSHAGLGSWPAGQRLLQRLI	failed
DEKGNIVDGDQIMYICSKHLKSEGRLKDDTVVSTVMSNLGFYKALEKEGIKSVQTAVGDRYVVEAMKKDGYNVGGEQSGHLIFLDYNTTGDGLLSAIMLMNTLKATGKPLSELAAEMQKF	failed
DEVENLYTQVADNEYLVQGRMLIDEFNEVFETDLHMSDVDTMAGYLITALGTIPDEGEKPSFEVGNIKLTAEEMEGTRLLVLRVHFYDEE	not failed
DGENYFIVDAHVALWDARRENQRNIHGKQFIDCFYDYHRNLSPASELWPYEDFLYQGGERLMKDLFTDGYVDHAIFQPAHLGAFYNTGFGQTEEAFALTRKHPGMLTYNHCFDPRFEEAGLKQLREDAARFGLKGVKLYTAEWKGDSRGYKLSDPWTYRYLDACRELGIKNIHVHKGPTIRPLDRDAFDVADVDAAASDFTDLNFVVEHCGLPRLEDFCWIATQEPNVHAGLAVAIPFMHTRPRYFAQIIGELLYWLDEDRIQFSSDYALWTPRWIVEQFVDFRIPDDMTGEYPQLTVAQKKKILGLNAAAMYDI	failed
DIAARRHTGVIPTHHQFITNERFGDLLNIDDTAKRKSGSEMRPARAKFDFKAQTLKELPLQKGDIVYIYKQIDQNWYEGEHHGRVGIFPRTYIELLPPAEKAQPKKLTPVQVLEYGEAIAKFNFNGDTQVEMSFRKGERITLLRQVDENWYEGRIPGTSRQGIFPITYVDVIKRPLVKNPVDYMDLPF	failed
DIMGFVFNTRRTLFKDKRVRQALSILFDFEWVNHHLFNNIYTRTEGYWDGSILSSIGKPASEEEKALLAPYPDAVLPEVMDGSWRISKTDGSGMDRLNAQKAWKLLQEAGFTKKNNRLIAPNGLPFQFEIMTQSLEEEKVALAFQSNLSRLGIHAEIRTVDDSQYQNRLGMFNYDMIIGKLKNSLSPGNEQINRWSSASRNLKGSFNFSGASDPAIDAMITAILDAHSQVDFIAAVRALDRILISGSYYIPLYHLS	not failed
DITERKQAESALQESEARFQAFMNNSPSASWITDDHGRMLYLSQTYVRTFQLPFDKVEDVTGKTVFELYTPEVAQPFLDNIHRVAQTQQILETIEKAPRLDGTLGDFLVYKFPLPATT	failed
DKITFKGDGDQSDPDGEPGDVVIVIQQKDHDIFKRDGDDLHMTKKLSLNEALCGYNFLIKHLDGHPLVLSSKQGDVIKPGVIRGVLGKGMPNKKYPELKGNLFVEFEVEFPKEHFLDDEKAYAVLK	not failed
DLEPRERLHRILEQVLVFAGAMVAAAYTHSEDGDQLCLAESAGVPRSLYGLRDSYPLTGGTPAADVHRSGQPLWLTPEDLGRCADARRLPNGDFSLAVLPLGDGGCLAAVSERAGGFDADDRECLRLLAGSVA	failed
DLSREADQALQEIVRQTQETAQMCLLNGRKYTVALMKEGERHFRISSNIGENAPIPWTASGRLLLGHLSDGQIVDLIDERDFVLPDGERLPLETFLKQIRQATEDGFFSFDSVADTFTHCFAAPVRDEHGVCICTLCIVAPRADAQRNYQQYRRVLIDSANRLARRIN	failed
DNKELQKLTEDISETYFKKPFRHQALFNDRLKTTGGRYLLTSHNIELNRKYLIEHGREELIGIIKHELCHYHLHLEGKGYKHRDRDFRMLLQQVNAPRFCTPLKKKAENKKTYMYICTTCGQQYIKKRAMNPDRYRCGKCRGKIKRI	not failed
DPREVAGGYVEKLCARYGLADVRVVQSPAMGRGLTGELGNAGAALLEEVVKDGMTVGVSWGDTMLAVSEHLRTLPLVDVKVVQLKGGHSHTARNTNDMVTLTRFSRALNAEMMMLPLPVILDSKEAKELVVKDRHIASMLNLGAHCDVAVFTVGAVKSESLLLNLGYLSPSEQARLMEHAVGDVCSRFYDAQGEVADPDIDARTVGISLADLKKRPVRVLVAGGLEKAPAIEAALRTGVATHVVIDHATAQRVVEMA	failed
DQPLAVAGDELAIADQTIDALSAQVEKLRHQQDLSLKQAELLTELSRANLSDIDEIQGVIQKNLDQARALFGCERLVFYYHPRYQPEAMVVQALDLTTQGLIDSKDPHPWGQEDMPSQIVAINDTSGASISNPHRQWLEQHQVKASLTVPLHRDNYPLGLLMAHHCQRPHQWEMRERQFLQQLTEELQTTLDRANLIQERNESAQQAQILKELTLKISAAIN	failed
DRTAILGGTFTPIHNGHRALLHKAFQTASHDGSGDGHVIVGLTSPELATETRSDPTHVKQLGAYDDRRSALASELDQLGEPYTATYEIVRLDDTQGPAATRADVDALVASPEAKAQRRAYELNQQRRESGLHPLEIHTPPFVVAEDGTRISSTRIRNGEIDVHGRLLD	failed
DRVLVPVANPNTEDNLLQLAIILTKSASGTLLPLHILLEENNPISPDAKAKQSQLLSTAEMIAHAAVVNVTPIGRIDESIDKGIARVAEEKQASAIICGWKGYSTYEENLFGGVIDKIVQRSFIPVLVSR	failed

— a protein production outcome set (Wang et al. 2014)
